Source: patent US20220106391A1 (ZOETIS SERVICES, published 2022)
Where a chain is given by its changes, count along the chain named.

T1: feline NGF (feline)
T1 chain: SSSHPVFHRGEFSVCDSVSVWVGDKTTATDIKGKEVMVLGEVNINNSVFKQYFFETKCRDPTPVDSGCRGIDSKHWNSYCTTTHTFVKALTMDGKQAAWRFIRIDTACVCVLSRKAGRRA

T2: canine beta-NGF (cNGF) (canine, UniProt Q29074 110-229 (pig entry))
T2 construct: also called canine NGF; can NGF
T2 chain: T1 chain

B1: H1-23K643 (antibody, V domains shown)
VH: DVQLVESGGDLVQPGGSLRLTCVASGFTLTQYGINWVRQAPGKGLQWVAVIWATGATDYNSALKSRFTISRDNAKNTLYLQMNSLKTEDTATYYCARDGWWYATSWYFDVWGQGALVTVSS
VL: EIQMTQSPSSLSASPGDRVTITCKASQDINHYLNWYQQKPGKVPKLLIYYTSRLHSGVPSRFSGSGSGTDFTLTISSLEPEDAATYYCQQGDHFPRTFGGGT
notes: also called ZTS-082-2D
B2: 182m43 (antibody, V domains shown)
VH: EVQLVESGGDLARPGGSLKLSCVVSGFTLTQYGINWVRQAPGKGLQWVTVIWATGATDYNSALKSRFTVSRDNAMNTVYLQMNSLRVEDTAVYYCARDGWWYATSWYFDVWGQGTLVTVSS
VL: DIVMTQTPLSLSVSPGEPASISCKASQDINHYLNWFRQKPDGTVKLLIYYTHSLHNGVPSRFSGSGSGTDFTLRISRVEADDAGVYYCQQGDHFPRTFGQGT
notes: 51 except in CDR2 (THSLHN); 51 as printed; also called Can-182-m43
B3: mAb 1B (ZTS-082) (antibody, IgG1a, V domains shown)
VH: B1 VH
VL: B2 VL with S14T, F36Y, R37L, H52S, S53R, N56S, A83V, Q100P
notes: Felinized IgG with feline heavy and kappa constant regions; also called ZTS-082-1B; H1-23 / KPL
B4: 182m70 (antibody, V domains shown)
VH: B2 VH
VL: B2 VL with H52S, N56G
notes: 51 except in CDR2 (TSSLHG); 51 (CDR2 Pos. 1-6 = residues 51-56); also called Can-182-m70
B5: 182m72 (antibody, V domains shown)
VH: B2 VH
VL: B2 VL with H52S, N56Q
notes: 51 except in CDR2 (TSSLHQ); 51 (CDR2 Pos. 1-6 = residues 51-56); also called Can-182-m72
B6: H733 L3-K36 (antibody, V domains shown)
VH: B1 VH with Q13K, I69M, K75R, A115T
VL: DIVMTQTPLSLPVTPGEPASISCKASQDINHYLNWYLQKPGQSPRLLIYYTSRLHSGVPSRFSGSGSGTDFTLRISSVEADDVGVYYCQQGDHFPRTFGQGT
notes: also called ZTS-082-361
B7: H1-23L3K36 (antibody, V domains shown)
VH: B1 VH
VL: B6 VL
notes: also called ZTS-082-1C
B8: 182m114 (antibody, V domains shown)
VH: B2 VH
VL: B2 VL with H52A, N56Q
notes: 51 except in CDR2 (TASLHQ); 51 (CDR2 Pos. 1-6 = residues 51-56); also called Can-182-m114
B9: H733KPL (antibody, V domains shown)
VH: B1 VH with Q13K, I69M, K75R, A115T
VL: B6 VL with P12S, G41D, Q42G, S43T, P44V, R45K, S77R, Q100P
notes: also called ZTS-082-2E
B10: H3AQC23L1A02D9L2 (antibody, V domains shown)
VH: B2 VH
VL: B2 VL with K24R, N30S, H31N, Y50K, H52N, H55Q, N56T, D92S, H93T, F94L
notes: Caninized IgG
B11: H3AQC2301B12L1AL1L3 (ZTS-00103182) (antibody, V domains shown)
VH: B2 VH
VL: B2 VL with H52S, S53R, N56S
notes: Caninized IgG; 49 as printed runs on into CH1; the VL entry stops at FGQGT; also called ZTS-182; wt 182
B12: 182m75 (antibody, V domains shown)
VH: B2 VH
VL: B2 VL with H52S, N56V
notes: 51 except in CDR2 (TSSLHV); 51 (CDR2 Pos. 1-6 = residues 51-56); also called Can-182-m75

Experiments:
feline NGF = biological target: T1, feline NGF; test: SPR, Biacore 3000, feline NGF
Protocol: Affinities of selected felinized anti-NGF antibody to feline NGF were measured using SPR (Surface Plasmon Resonance), Biacore 3000. Kinetics of association and dissociation of a felinized mAb with/from feline NGF were measured at different concentrations.

NGF (species not stated) [1] = test: cell-based or functional assay
canine beta-NGF (cNGF) [2] = biological target: T2, canine beta-NGF (cNGF); test: SPR (Biacore), cNGF binding
canine beta-NGF (cNGF) [3] = biological target: T2, canine beta-NGF (cNGF); test: SPR (Biacore), cNGF binding; KD column of Table 7
canine beta-NGF (cNGF) [4] = biological target: T2, canine beta-NGF (cNGF); test: SPR (Biacore), KD column of Table 3
canine beta-NGF (cNGF) [5] = biological target: T2, canine beta-NGF (cNGF); test: SPR (Biacore)
rat NGF = rat NGF (rat, UniProt P25427 122-241); test: cell-based or functional assay
rat NGF, sequence (P25427 122-241 limits assumed): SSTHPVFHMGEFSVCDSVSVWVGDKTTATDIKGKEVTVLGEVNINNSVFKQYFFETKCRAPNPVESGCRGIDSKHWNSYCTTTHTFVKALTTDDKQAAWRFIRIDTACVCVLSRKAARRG

canine beta-NGF (cNGF) [6] = biological target: T2, canine beta-NGF (cNGF); test: cell-based or functional assay
NGF (species not stated) [7] = test: cell-based or functional assay; remark: listed apart in the source

Binder	Kd (feline NGF)	IC50 (nM) (pERK-1/2, cell line expressing human TrkA) (NGF (species not stated) [1])	Kd (canine beta-NGF (cNGF) [2])	koff (canine beta-NGF (cNGF) [2])	kon (canine beta-NGF (cNGF) [2])	Kd (canine beta-NGF (cNGF) [3])	other results
B1	0.177 nM	1.48 nM					
B2			4.32 nM	3.32e-06 s⁻¹	769 M⁻¹ s⁻¹	4.32 nM	
B3	0.00941 nM	1.28 nM					
B4			4.9 nM	9.46e-06 s⁻¹	1930 M⁻¹ s⁻¹	4.9 nM	
B5			0.0741 nM	2.79e-07 s⁻¹	3760 M⁻¹ s⁻¹	0.0741 nM	
B6	0.000334 nM	1.13 nM					
B7	0.916 nM	1.3 nM					
B8			0.707 nM	1.27e-06 s⁻¹	1790 M⁻¹ s⁻¹	0.707 nM	
B9	0.000458 nM	1.34 nM					
B10							binding result (canine beta-NGF (cNGF) [4]): no binding
B11						0.0027 nM	Kd (canine beta-NGF (cNGF) [5]): 0.061 nM; IC50 nM (inhibition of neurite outgrowth, PC12 cells, rat NGF 10 ng/ml) (rat NGF): 0.21 nM; IC50 µg/ml (inhibition of neurite outgrowth, PC12 cells, rat NGF 10 ng/ml) (rat NGF): 0.031 µg/mL; IC50 [nM] (TrkA cell based assay) (canine beta-NGF (cNGF) [6]): 1.26 nM; IC50 nM (TF-1 proliferation inhibition, NGF 2.0 ng/ml) (NGF (species not stated) [7]): 0.046 nM; IC50 µg/ml (TF-1 proliferation inhibition, NGF 2.0 ng/ml) (NGF (species not stated) [7]): 0.00693 µg/mL
B12			2.03 nM	8.99e-07 s⁻¹	444 M⁻¹ s⁻¹	2.03 nM	
